From article PMC12157903

Assays:
Recombinant protein G = assay: optical weak value amplification (WVA) sensor; recombinant protein G (50 µg/mL, 30 min) immobilised on polydopamine on the prism, surface blocked; 10 µg/mL antibody (mouse IgG) injected at 30 µL/min for 120 min; PBS, 25 °C; reference channel with PBS subtracted; curves fitted with the intraparticle diffusion model
[1] = target: Mouse Immunoglobulin G (mouse); assay: optical weak value amplification (WVA) sensor; oriented strategy: mouse IgG captured on immobilised protein G; 30 µg/mL protein L injected until the signal was saturated (120 min); 25 °C

Row | Substance | Kid,1 (intraparticle diffusion rate constant, surface diffusion stage) (Recombinant protein G) [a.u.min^−1/2] | Kid,2 (intraparticle diffusion rate constant, intraparticle diffusion stage) (Recombinant protein G) [a.u.min^−1/2] | Kid,3 (intraparticle diffusion rate constant, intraparticle diffusion stage) (Recombinant protein G) [a.u.min^−1/2] | fold antibody immobilised, against random immobilisation on polydopamine (Recombinant protein G) [fold] | fold binding sites, against randomly immobilised IgG [1] [times]
1 | Mouse Immunoglobulin G (antibody) | 454 | 239 | 83.9 | 2.27 | –
2 | Recombinant protein L | – | – | – | – | 1.59
